The target in this assay is UNC-119 tagged with the C-terminal fragment of Venus (C. elegans) (UniProt Q10658). In words: split reporter (BiFC, NanoBiT); BiFC in AWC neurons of wild-type animals: VC::UNC-119 with ODR-3::VN variants; read-out is percent of transgenic animals with signal; free VN as negative control.
UniProt Q10658, sequence (Q10658 whole entry, the tested form may be a part): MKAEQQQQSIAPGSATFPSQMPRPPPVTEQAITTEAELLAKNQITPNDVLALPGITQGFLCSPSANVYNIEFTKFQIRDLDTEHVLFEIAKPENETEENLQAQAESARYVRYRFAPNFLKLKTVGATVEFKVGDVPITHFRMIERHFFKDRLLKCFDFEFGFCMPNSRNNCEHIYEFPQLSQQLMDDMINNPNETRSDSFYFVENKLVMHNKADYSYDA

With “ODR-3^A328P tagged with the N-terminal Venus fragment (from UniProt Q18434 1-356) (natural protein)”, the percent of transgenic animals with BiFC signal is 51%.

On to “ODR-3^WT tagged with the N-terminal Venus fragment (from UniProt Q18434 1-356) (natural protein)”, for which the percent of transgenic animals with BiFC signal was determined as 81%.

These data come from paper doi:10.1101/2025.08.18.670960.
